Source: patent US20230212319A1, “NOVEL ANTIGEN BINDING DOMAINS AND SYNTHETIC ANTIGEN RECEPTORS INCORPORATING THE SAME” (University of Southern California, priority 2020, published 2023)

B1: 4090 (protein)
chain: MALPVTALLLPLALLLHAARPDIQMTQSPSSLSASVGDRVTITCKASDHINNWLAWYQQKPGQAPKLLIYGATTLETGVPSRFSGSGSGTDYTLTISSLQPEDFATYYCQQSWNTPWTFGQGTKLEIKRLEDLKNVFPPEVAVFEPSEAEISHTQKATLVCLATGFYPDHVELSWWVNGKEVHSGVCTDPQPLKEQPALNDSRYCLSSRLRVSATFWQNPRNHFRCQVQFYGLSENDEWTQDRAKPVTQIVSAEAWGRADCGFTSESYQQGVLSATILYEILLGKATLYAVLVSALVLMAMVKRKDSRGRAKRSGSGATNFSLLKQAGDVEENPGPTSMDWIWRILFLVGAATGAHSGPQVQLQESGGGLAQAGGSLRLSCAASGRTFSMGWFRQAPGKEREFVAAITYSGGSPYYASSVRGRFTISRDNAKNTVYLQMNSLKPEDTAVYYCAANPTYGSDWNAENWGQGTQVTVSSGSGGGGSGGGGSGGGGSFEQVQLQQPGAELVKPGASVKMSCKASGYAFSSYWINWMKQKPGQGLEWIGQIYPGDGDTNYNGKFKGRATLTADTSSSTAYMQLSSLTSEDSAVYFCARSITTVVGCAMDYWGQGTSVTVSSTRIQNPDPAVYQLRDSKSSDKSVCLFTDFDSQTNVSQSKDSDVYITDKCVLDMRSMDFKSNSAVAWSNKSDFACANAFNNSIIPEDTFFPSPESSCDVKLVEKSFETDTNLNFQNLSVIGFRILLLKVAGFNLLMTLRLWSSRAKRSGSGVKQTLNFDLLKLAGDVESNPGPSRGHMTEYKPTVRLATRDDVPRAVRTLAAAFADYPATRHTVDPDRHIERVTELQELFLTRVGLDIGKVWVADDGAAVAVWTTPESVEAGAVFAEIGPRMAELSGSRLAAQQQMEGLLAPHRPKEPAWFLATVGVSPDHQGKGLGSAVVLPGVEAAERAGVPAFLETSAPRNLPFYERLGFTVTADVEVPEGPRTWCMTRKPGA
modifications: Synthetic Polynucloetide
B2: 22292 (protein)
chain: MALPVTALLLPLALLLHAARPACMGSWFEFYDRLNAIDARLWALGGSEAELAAFEKEIAAFESELQAYKGKGNPEVENLRVHAAAIREWLQAYRHNGTGGGGSGGGGSGGGGSEFDIQMTQSPSSLSASVGDRVTITCKASDHINNWLAWYQQKPGQAPKLLIYGATTLETGVPSRFSGSGSGTDYTLTISSLQPEDFATYYCQQSWNTPWTFGQGTKLEIKRLEDLKNVFPPEVAVFEPSEAEISHTQKATLVCLATGFYPDHVELSWWVNGKEVHSGVCTDPQPLKEQPALNDSRYCLSSRLRVSATFWQNPRNHFRCQVQFYGLSENDEWTQDRAKPVTQIVSAEAWGRADCGFTSESYQQGVLSATILYEILLGKATLYAVLVSALVLMAMVKRKDSRGRAKRSGSGATNFSLLKQAGDVEENPGPTSMDWIWRILFLVGAATGAHSFEQVQLQQPGAELVKPGASVKMSCKASGYAFSSYWINWMKQKPGQGLEWIGQIYPGDGDTNYNGKFKGRATLTADTSSSTAYMQLSSLTSEDSAVYFCARSITTVVGCAMDYWGQGTSVTVSSTRIQNPDPAVYQLRDSKSSDKSVCLFTDFDSQTNVSQSKDSDVYITDKCVLDMRSMDFKSNSAVAWSNKSDFACANAFNNSIIPEDTFFPSPESSCDVKLVEKSFETDTNLNFQNLSVIGFRILLLKVAGFNLLMTLRLWSSRAKRSGSGVKQTLNFDLLKLAGDVESNPGPSRGHMTEYKPTVRLATRDDVPRAVRTLAAAFADYPATRHTVDPDRHIERVTELQELFLTRVGLDIGKVWVADDGAAVAVWTTPESVEAGAVFAEIGPRMAELSGSRLAAQQQMEGLLAPHRPKEPAWFLATVGVSPDHQGKGLGSAVVLPGVEAAERAGVPAFLETSAPRNLPFYERLGFTVTADVEVPEGPRTWCMTRKPGA
B3: 4088 (protein)
chain: MALPVTALLLPLALLLHAARPDIQMTQSPSSLSASVGDRVTITCKASDHINNWLAWYQQKPGQAPKLLIYGATTLETGVPSRFSGSGSGTDYTLTISSLQPEDFATYYCQQSWNTPWTFGQGTKLEIKRLEIQNPDPAVYQLRDSKSSDKSVCLFTDFDSQTNVSQSKDSDVYITDKCVLDMRSMDFKSNSAVAWSNKSDFACANAFNNSIIPEDTFFPSSDVPCDVKLVEKSFETDTNLNFQNLSVIGFRILLLKVAGFNLLMTLRLWSSRAKRSGSGVKQTLNFDLLKLAGDVESNPGPTSMDWIWRILFLVGAATGAHSGPQVQLQESGGGLAQAGGSLRLSCAASGRTFSMGWFRQAPGKEREFVAAITYSGGSPYYASSVRGRFTISRDNAKNTVYLQMNSLKPEDTAVYYCAANPTYGSDWNAENWGQGTQVTVSSGSGGGGSGGGGSGGGGSFEQVQLQQPGAELVKPGASVKMSCKASGYAFSSYWINWMKQKPGQGLEWIGQIYPGDGDTNYNGKFKGRATLTADTSSSTAYMQLSSLTSEDSAVYFCARSITTVVGCAMDYWGQGTSVTVSSTREDLKNVFPPEVAVFEPSKAEIAHTQKATLVCLATGFYPDHVELSWWVNGKEVHSGVCTDPQPLKEQPALNDSRYCLSSRLRVSATFWQNPRNHFRCQVQFYGLSENDEWTQDRAKPVTQIVSAEAWGRADCGITSASYHQGVLSATILYEILLGKATLYAVLVSALVLMAMVKRKDSRGRAKRSGSGATNFSLLKQAGDVEENPGPSRGHMTEYKPTVRLATRDDVPRAVRTLAAAFADYPATRHTVDPDRHIERVTELQELFLTRVGLDIGKVWVADDGAAVAVWTTPESVEAGAVFAEIGPRMAELSGSRLAAQQQMEGLLAPHRPKEPAWFLATVGVSPDHQGKGLGSAVVLPGVEAAERAGVPAFLETSAPRNLPFYERLGFTVTADVEVPEGPRTWCMTRKPGA
modifications: Synthetic Polynucloetide
B4: 22164 (protein)
chain: MALPVTALLLPLALLLHAARPDIQMTQSPSSLSASVGDRVTITCKASDHINNWLAWYQQKPGQAPKLLIYGATTLETGVPSRFSGSGSGTDYTLTISSLQPEDFATYYCQQSWNTPWTFGQGTKLEIKRLEDLKNVFPPEVAVFEPSEAEISHTQKATLVCLATGFYPDHVELSWWVNGKEVHSGVCTDPQPLKEQPALNDSRYCLSSRLRVSATFWQNPRNHFRCQVQFYGLSENDEWTQDRAKPVTQIVSAEAWGRADCGFTSESYQQGVLSATILYEILLGKATLYAVLVSALVLMAMVKRKDSRGRAKRSGSGATNFSLLKQAGDVEENPGPTSATMDWIWRILFLVGAATGAHSGPEVQLVESGGGLVQAGGSLRLSCAASGSVFSGNVMGWYRQAPGKEREWVAAIASGGSIYYRDSVKGRFTISRDNAKNTVYLQMNSLKPEDTAVYYCNSHPPTLPYWGLGTQVTVSSGSGGGGSGGGGSGGGGSFEQVQLQQPGAELVKPGASVKMSCKASGYAFSSYWINWMKQKPGQGLEWIGQIYPGDGDTNYNGKFKGRATLTADTSSSTAYMQLSSLTSEDSAVYFCARSITTVVGCAMDYWGQGTSVTVSSTRIQNPDPAVYQLRDSKSSDKSVCLFTDFDSQTNVSQSKDSDVYITDKCVLDMRSMDFKSNSAVAWSNKSDFACANAFNNSIIPEDTFFPSPESSCDVKLVEKSFETDTNLNFQNLSVIGFRILLLKVAGFNLLMTLRLWSSRAKRSGSGVKQTLNFDLLKLAGDVESNPGPSRGHMTEYKPTVRLATRDDVPRAVRTLAAAFADYPATRHTVDPDRHIERVTELQELFLTRVGLDIGKVWVADDGAAVAVWTTPESVEAGAVFAEIGPRMAELSGSRLAAQQQMEGLLAPHRPKEPAWFLATVGVSPDHQGKGLGSAVVLPGVEAAERAGVPAFLETSAPRNLPFYERLGFTVTADVEVPEGPRTWCMTRKPGA

Experiments:
DAUDI (CD20+) cells = type: cell-based
RAJI cells = experiment: JNG (Jurkat NFAT-GFP) cells expressing SAR: GFP induction on co-culture with RAJI
RS411 cells = type: cell-based
L428 cells = experiment: JNG assay, co-culture with L428 cells; type: cell-based
Experimental: Cellular supernatant is collected and assayed for the induction of cytokines (e.g., IL2).
JNG (Jurkat cells expressing EGFP under an NFAT promoter) were infected with lentiviral vectors encoding different single chain and multi-chain SARs by spinfection in the presence of 8 µg/ml of Polybrene® (Sigma, Catalog no. H9268). The Jurkat-NFAT-GFP cells are engineered in such a way that the IL-2 promoter, which carries NFAT binding sites, is cloned upstream of the GFP gene. These cells have been used to study signaling via TCR and CAR. The different SARs were stably expressed in Jurkat NFAT-GFP cells by lentiviral mediated gene transfer, followed by selection with puromycin or blasticidin. No drug selection was used in case the construct lacked an antibiotic resistance gene. The SAR-expressing Jurkat-NFAT-GFP cells were cocultured with the target cells at E:T ratio of approximately 1:2 for approximately 4 hours to 18 hours. When the interaction between SIRs and their target antigen results in activation of the NFAT pathway, GFP expression is induced. […] GFP expression was monitored by FACS analysis. The Jurkat-NFAT-GFP (parental) cells were used as control. The structure of different constructs can be determined based on their names. […] The sequence of the other constructs in the table can be similarly determined from their names and by referring to the different Tables of this disclosure that provide the names and SEQ ID NO of the different modules. Alternatively, the composition and modular architecture of the different SAR constructs can be determined from their sequences by bioinformatics tools, including using nucleic acid and amino acids homology searches. […] The signs +/-, +, 2+ etc. after the name of the cell lines indicate the relative degree of positivity on the Jurkat-NFAT-GFP assay as measured by the % GFP positive cells after culture of the SAR expressing Jurkat-NFAT-GFP cells with that cell line above the % GFP cells observed in parental Jurkat NFAT-GFP cells serving as controls. […]

Molecule	GFP induction (JNG-GFP induction assay), DAUDI (DAUDI (CD20+) cells)	GFP induction (JNG-GFP induction assay), RAJI WT (RAJI cells)	GFP induction (JNG-GFP induction assay), RS;411 (RS411 cells)	NFAT-GFP ASSAY: L428 with bc40-p26-CD123-cg06 (L428 cells; L428 in presence of SAR adaptor bc40-p26-CD123-cg06)	NFAT-GFP ASSAY: L428 (L428 cells; co-culture with L428)
B1	highly positive	positive	highly positive		
B2				+3	
B3	highly positive	positive	highly positive		
B4					3+ (refer to approximately 5%, 10%, 20%, 30%, 40% and 50% GFP positive cells)
